The supplement of paper PMC10065799, “High-throughput profiling of sequence recognition by tyrosine kinases and SH2 domains using bacterial peptide display” (eLife, 2023)

biological target: FGFR3 (UniProt P22607); experiment: phosphorylation enrichment, bacterial display (enrichment ratio); higher = better substrate or ligand; peptides without Tyr show the background
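Note: 11-residue human phosphosite peptides and single-mutation variants displayed on the E. coli surface, counted by deep sequencing, each peptide's frequency after selection divided by its frequency in the unselected input library; frequency after pTyr selection over input frequency; kinase dosed for 20-30% of maximal phosphorylation in three min.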

Chain of FGFR3 (P22607 whole entry, looked up): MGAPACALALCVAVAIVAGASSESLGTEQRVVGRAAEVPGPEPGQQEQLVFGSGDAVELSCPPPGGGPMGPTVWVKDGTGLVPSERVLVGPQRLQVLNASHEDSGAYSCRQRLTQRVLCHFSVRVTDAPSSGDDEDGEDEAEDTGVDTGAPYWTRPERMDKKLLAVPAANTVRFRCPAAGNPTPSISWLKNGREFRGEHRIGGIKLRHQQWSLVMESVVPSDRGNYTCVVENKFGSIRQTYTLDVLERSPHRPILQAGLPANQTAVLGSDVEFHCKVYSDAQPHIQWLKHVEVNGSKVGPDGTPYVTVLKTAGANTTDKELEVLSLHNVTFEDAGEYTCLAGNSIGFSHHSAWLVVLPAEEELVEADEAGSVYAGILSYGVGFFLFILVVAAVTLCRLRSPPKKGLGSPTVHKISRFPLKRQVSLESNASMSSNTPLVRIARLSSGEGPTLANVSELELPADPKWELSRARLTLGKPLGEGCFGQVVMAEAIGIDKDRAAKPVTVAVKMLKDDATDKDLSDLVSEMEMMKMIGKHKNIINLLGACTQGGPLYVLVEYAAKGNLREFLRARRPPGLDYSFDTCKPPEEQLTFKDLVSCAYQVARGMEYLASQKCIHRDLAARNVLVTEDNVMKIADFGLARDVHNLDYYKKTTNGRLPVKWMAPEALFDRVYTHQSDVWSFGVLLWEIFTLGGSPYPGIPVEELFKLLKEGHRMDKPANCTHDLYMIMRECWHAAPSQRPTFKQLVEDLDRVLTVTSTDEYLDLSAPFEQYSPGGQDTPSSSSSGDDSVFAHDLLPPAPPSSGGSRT

Sequence | phosphorylation enrichment
RMLREYQELMS [KRT74_Y425] | 0.555
VSYDEYRYRSF [CFTR_Y515_V520F] | 0.606
TFGVLYKARNK [CDK2_Y19_V18L_YF] | 0.586
IRKDLYSNNVL [ACTC1_Y296_A297S] | 0.422
VNRSGYTLIRK [ATP6V0A2_Y688] | 0.452
GEDEPYAEPFA [APBA1_Y183_S184A_YF] | 0.872
ISKTWYSAEQF [CD207_Y217_P213S] | 0.757
RLKAKYPAATG [GLI3_Y933_A934P] | 0.941
RRYLYYYSYLL [PTEN_Y177_V175L] | 1.93
ETGEPCRLSPE [EIF4G1_Y311_Y311C] | 0.846
SSVKPYRVFCD [FGB_Y266_YF] | 0.552
RENGPYYTSYP [GDAP2_Y487] | 3.32
VEDPEYAVTQP [STOML2_Y124_L129P] | 0.848
QLPRGYISILV [BAG3_Y205_P209L] | 0.748
HITQVYGFFDE [PPP2CA_Y127_Q122H_YF] | 1.16
KDHPDYEYQPR [SOX9_Y172_K173E] | 0.771
KDIENYIQDGK [RAD50_Y964] | 0.616

Sequence | phosphorylation enrichment
MCVKSYTIHFS [F5_Y2153_Y2149C_YF] | 1.01
HYVYYYSYLLK [PTEN_Y178_R173H] | 5.92
VNFGAYINDFN [GLB1_Y488_K493N_YF] | 0.708
NALAQYQEMEK [BBS4_Y395] | 0.658
NPQKSCFIRLF [WAS_Y83_Y83C_YF] | 0.704
NTSKMYIPHTD [EXPH5_Y782_D777N] | 0.523
FSMGCYEISLG [HMGCL_Y198_YF] | 1.05
KPGLVYNKVNP [SPRED3_Y72] | 0.453
DQNVEYKGTVW [FHL1_Y117] | 0.755
LYNQDYPIHSV [GATM_Y227] | 1.44
NDQANYSLNTD [ADA_Y290] | 0.749
GVYSRYFTTYD [CLCA1_Y661] | 0.729
EFNINYNNELP [THG1L_Y228] | 0.568
LRLFSYSTTIR [CYP7B1_Y365_S363F] | 0.773
NTGNFYDLFGG [PTPN11_Y63_D61N_YF] | 0.641
KDHPDYKFPPR [SOX10_Y171_Q174P_YF] | 0.762

tested on: Fer (mouse); experiment: as above

Sequence | phosphorylation enrichment
RMLREYQELMS [KRT74_Y425] | 0.357
VSYDEYRYRSF [CFTR_Y515_V520F] | 0.435
TFGVLYKARNK [CDK2_Y19_V18L_YF] | 0.536
IRKDLYSNNVL [ACTC1_Y296_A297S] | 0.414
VNRSGYTLIRK [ATP6V0A2_Y688] | 0.366
GEDEPYAEPFA [APBA1_Y183_S184A_YF] | 0.569
ISKTWYSAEQF [CD207_Y217_P213S] | 0.521
RLKAKYPAATG [GLI3_Y933_A934P] | 0.604
RRYLYYYSYLL [PTEN_Y177_V175L] | 1.24
ETGEPCRLSPE [EIF4G1_Y311_Y311C] | 0.55
SSVKPYRVFCD [FGB_Y266_YF] | 0.34
RENGPYYTSYP [GDAP2_Y487] | 0.618
VEDPEYAVTQP [STOML2_Y124_L129P] | 0.664
QLPRGYISILV [BAG3_Y205_P209L] | 0.663
HITQVYGFFDE [PPP2CA_Y127_Q122H_YF] | 0.823
KDHPDYEYQPR [SOX9_Y172_K173E] | 0.465
KDIENYIQDGK [RAD50_Y964] | 0.416

Sequence | phosphorylation enrichment
MCVKSYTIHFS [F5_Y2153_Y2149C_YF] | 0.552
HYVYYYSYLLK [PTEN_Y178_R173H] | 0.888
VNFGAYINDFN [GLB1_Y488_K493N_YF] | 0.571
NALAQYQEMEK [BBS4_Y395] | 0.454
NPQKSCFIRLF [WAS_Y83_Y83C_YF] | 0.47
NTSKMYIPHTD [EXPH5_Y782_D777N] | 0.469
FSMGCYEISLG [HMGCL_Y198_YF] | 1.68
KPGLVYNKVNP [SPRED3_Y72] | 0.409
DQNVEYKGTVW [FHL1_Y117] | 0.425
LYNQDYPIHSV [GATM_Y227] | 0.732
NDQANYSLNTD [ADA_Y290] | 0.498
GVYSRYFTTYD [CLCA1_Y661] | 0.573
EFNINYNNELP [THG1L_Y228] | 0.38
LRLFSYSTTIR [CYP7B1_Y365_S363F] | 0.457
NTGNFYDLFGG [PTPN11_Y63_D61N_YF] | 3.08
KDHPDYKFPPR [SOX10_Y171_Q174P_YF] | 0.376

biological target: Fes (UniProt P07332); experiment: as above
Sequence (P07332 whole entry, looked up): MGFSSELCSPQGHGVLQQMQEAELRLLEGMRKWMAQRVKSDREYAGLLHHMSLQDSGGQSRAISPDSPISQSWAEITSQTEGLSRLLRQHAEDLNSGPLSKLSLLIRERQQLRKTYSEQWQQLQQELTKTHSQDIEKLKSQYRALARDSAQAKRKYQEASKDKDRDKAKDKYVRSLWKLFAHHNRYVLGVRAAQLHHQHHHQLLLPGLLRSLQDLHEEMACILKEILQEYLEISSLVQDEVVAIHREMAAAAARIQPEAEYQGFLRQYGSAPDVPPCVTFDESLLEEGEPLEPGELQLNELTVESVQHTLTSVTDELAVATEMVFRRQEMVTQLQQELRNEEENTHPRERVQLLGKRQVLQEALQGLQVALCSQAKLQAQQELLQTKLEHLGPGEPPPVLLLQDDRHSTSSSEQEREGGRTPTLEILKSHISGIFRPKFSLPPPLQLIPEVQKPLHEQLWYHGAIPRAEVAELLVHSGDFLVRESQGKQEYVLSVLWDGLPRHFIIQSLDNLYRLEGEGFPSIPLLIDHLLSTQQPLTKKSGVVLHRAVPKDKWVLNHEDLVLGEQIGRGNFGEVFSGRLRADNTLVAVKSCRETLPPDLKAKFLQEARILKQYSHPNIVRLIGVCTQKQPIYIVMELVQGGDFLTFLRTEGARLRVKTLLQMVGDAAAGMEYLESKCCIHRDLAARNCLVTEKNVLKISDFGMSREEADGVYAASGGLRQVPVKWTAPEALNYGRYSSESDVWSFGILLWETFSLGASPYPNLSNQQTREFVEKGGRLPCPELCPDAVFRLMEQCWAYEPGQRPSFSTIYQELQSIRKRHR

Sequence | phosphorylation enrichment
RMLREYQELMS [KRT74_Y425] | 0.837
VSYDEYRYRSF [CFTR_Y515_V520F] | 0.951
TFGVLYKARNK [CDK2_Y19_V18L_YF] | 0.906
IRKDLYSNNVL [ACTC1_Y296_A297S] | 0.553
VNRSGYTLIRK [ATP6V0A2_Y688] | 0.672
GEDEPYAEPFA [APBA1_Y183_S184A_YF] | 1.21
ISKTWYSAEQF [CD207_Y217_P213S] | 0.837
RLKAKYPAATG [GLI3_Y933_A934P] | 0.969
RRYLYYYSYLL [PTEN_Y177_V175L] | 1.75
ETGEPCRLSPE [EIF4G1_Y311_Y311C] | 1.31
SSVKPYRVFCD [FGB_Y266_YF] | 0.74
RENGPYYTSYP [GDAP2_Y487] | 1.05
VEDPEYAVTQP [STOML2_Y124_L129P] | 1.33
QLPRGYISILV [BAG3_Y205_P209L] | 1.38
HITQVYGFFDE [PPP2CA_Y127_Q122H_YF] | 2.38
KDHPDYEYQPR [SOX9_Y172_K173E] | 0.961
KDIENYIQDGK [RAD50_Y964] | 0.965

Sequence | phosphorylation enrichment
MCVKSYTIHFS [F5_Y2153_Y2149C_YF] | 1.41
HYVYYYSYLLK [PTEN_Y178_R173H] | 2.12
VNFGAYINDFN [GLB1_Y488_K493N_YF] | 1.07
NALAQYQEMEK [BBS4_Y395] | 0.967
NPQKSCFIRLF [WAS_Y83_Y83C_YF] | 1.18
NTSKMYIPHTD [EXPH5_Y782_D777N] | 0.609
FSMGCYEISLG [HMGCL_Y198_YF] | 1.47
KPGLVYNKVNP [SPRED3_Y72] | 0.595
DQNVEYKGTVW [FHL1_Y117] | 1.17
LYNQDYPIHSV [GATM_Y227] | 1.23
NDQANYSLNTD [ADA_Y290] | 0.982
GVYSRYFTTYD [CLCA1_Y661] | 1
EFNINYNNELP [THG1L_Y228] | 0.829
LRLFSYSTTIR [CYP7B1_Y365_S363F] | 1.09
NTGNFYDLFGG [PTPN11_Y63_D61N_YF] | 0.955
KDHPDYKFPPR [SOX10_Y171_Q174P_YF] | 0.685

biological target: Fyn (UniProt P06241); experiment: as above
Sequence (P06241 whole entry, looked up): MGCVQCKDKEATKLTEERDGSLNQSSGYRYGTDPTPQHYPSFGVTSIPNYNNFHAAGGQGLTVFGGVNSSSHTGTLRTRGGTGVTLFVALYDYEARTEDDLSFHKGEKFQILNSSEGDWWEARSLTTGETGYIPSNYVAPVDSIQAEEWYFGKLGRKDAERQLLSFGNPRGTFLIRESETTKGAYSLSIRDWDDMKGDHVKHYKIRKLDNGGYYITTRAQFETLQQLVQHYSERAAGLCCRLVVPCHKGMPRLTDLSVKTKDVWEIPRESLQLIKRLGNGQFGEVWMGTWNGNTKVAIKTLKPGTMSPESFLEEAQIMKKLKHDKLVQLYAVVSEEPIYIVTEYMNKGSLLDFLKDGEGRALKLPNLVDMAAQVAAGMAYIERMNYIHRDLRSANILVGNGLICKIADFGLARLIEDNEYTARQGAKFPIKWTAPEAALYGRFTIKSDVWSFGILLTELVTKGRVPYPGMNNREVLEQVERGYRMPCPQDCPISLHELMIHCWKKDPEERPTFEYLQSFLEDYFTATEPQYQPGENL

Sequence | phosphorylation enrichment
RMLREYQELMS [KRT74_Y425] | 0.699
VSYDEYRYRSF [CFTR_Y515_V520F] | 0.548
TFGVLYKARNK [CDK2_Y19_V18L_YF] | 0.421
IRKDLYSNNVL [ACTC1_Y296_A297S] | 0.415
VNRSGYTLIRK [ATP6V0A2_Y688] | 0.533
GEDEPYAEPFA [APBA1_Y183_S184A_YF] | 0.462
ISKTWYSAEQF [CD207_Y217_P213S] | 0.532
RLKAKYPAATG [GLI3_Y933_A934P] | 0.755
RRYLYYYSYLL [PTEN_Y177_V175L] | 0.816
ETGEPCRLSPE [EIF4G1_Y311_Y311C] | 0.531
SSVKPYRVFCD [FGB_Y266_YF] | 0.419
RENGPYYTSYP [GDAP2_Y487] | 2.55
VEDPEYAVTQP [STOML2_Y124_L129P] | 0.543
QLPRGYISILV [BAG3_Y205_P209L] | 0.563
HITQVYGFFDE [PPP2CA_Y127_Q122H_YF] | 15.7
KDHPDYEYQPR [SOX9_Y172_K173E] | 0.667
KDIENYIQDGK [RAD50_Y964] | 0.433

Sequence | phosphorylation enrichment
MCVKSYTIHFS [F5_Y2153_Y2149C_YF] | 0.489
HYVYYYSYLLK [PTEN_Y178_R173H] | 1.29
VNFGAYINDFN [GLB1_Y488_K493N_YF] | 0.451
NALAQYQEMEK [BBS4_Y395] | 0.545
NPQKSCFIRLF [WAS_Y83_Y83C_YF] | 0.459
NTSKMYIPHTD [EXPH5_Y782_D777N] | 0.45
FSMGCYEISLG [HMGCL_Y198_YF] | 0.993
KPGLVYNKVNP [SPRED3_Y72] | 0.424
DQNVEYKGTVW [FHL1_Y117] | 0.496
LYNQDYPIHSV [GATM_Y227] | 1.31
NDQANYSLNTD [ADA_Y290] | 0.585
GVYSRYFTTYD [CLCA1_Y661] | 4.58
EFNINYNNELP [THG1L_Y228] | 0.468
LRLFSYSTTIR [CYP7B1_Y365_S363F] | 0.421
NTGNFYDLFGG [PTPN11_Y63_D61N_YF] | 6.58
KDHPDYKFPPR [SOX10_Y171_Q174P_YF] | 0.415
